This passage reports stoichiometry N results from publication PMC2696313.

The target in the assay is Δ41-52 hPRL (human prolactin with residues 41-52 removed) (human) (UniProt P01236). Briefly: mass spectrometry.

For orientation: stoichiometry N means a count of units in the complex or per binding partner. Substance “Δ41-52 hPRL (human prolactin with residues 41-52 removed) (from UniProt P01236 29-227) (ligand)” registered a stoichiometry N of 2.
